Experimental data from patent publication US20240318135A1.

Key:
[1] = target: HLA-A*0201-… MHC dextramer (human); test: flow cytometry, serial dilutions of the target pMHC dextramer on TnT-TCR cells, pMHC-dex+ cells (% of max), three-parameter fit, n=3; the concentration is that of the dextramer
[2] = target: HLA-A*0201-… MHC dextramer (human); test: flow cytometry, serial dilutions of pMHC dextramer on TnT-TCR cells; EC50 of normalized dextramer saturation curves
[3] = target: MART-1 peptide … presented by HLA*A0201 on T2 cells (human)
[4] = target: MART-1 peptide … presented by HLA*A0201 on T2 cells (human); test: cell-based or functional assay
[5] = target: HLA-A*0201-… MHC dextramer (human); test: flow cytometry of TnT-TCR cells stained with fluorescently-labelled pMHC dextramer and anti-CD3
[6] = target: MART-1 peptide on HLA-A*02:01 (human); test: NFAT-eGFP in TnT-TCR cells after overnight co-culture with peptide-pulsed T2 cells, FIG. 8C; full-length, on cells
[7] = target: NY-ESO-1 peptide … presented by HLA*A0201 on T2 cells (human)

EC50 [1] [nM]	fold lower EC50 than DMF4 [2] [fold]	EC50 (peptide concentration for half-maximal GFP+ cells, NFAT-GFP reporter) [3] [nM]	fold difference in functional EC50 between DMF4 and DMF5 [4] [fold]	Q2 (percent of cells CD3+ and [..] pMHC dex+) (% (unit not given)) [5]	difference of peptide EC50 between DMF4 and DMF5 [6] [fold]	EC50 (peptide concentration for half-maximal GFP+ cells, NFAT-GFP reporter) [7] [nM]	Substance
0.00692	39	8.13	< 2	99.1	–	–	TCR DMF5
0.267	–	14.2	–	48	–	–	TCR DMF4
–	–	–	–	–	< 2	–	DMF5
0.0568	–	–	–	96.1	–	167	TCR 1G4
